Measured values published in patent publication US20250243277A1 (AVACTA LIFE SCIENCES, published 2025).
Residue numbers refer to the chain shown, from its start.

B1: Clone 152 (designed binder)
chain: MIPGGLSEAKPATPEIQEIVDKVKPQLEEKTGETYGKLEAVQYKTQVVRAQLRPWVAGTNYYIKVRAGDNKYMHLKVFKSLGWNEEARPPEDLVLTGYQVDKNKDDELTGF
notes: His-tagged
B2: Clone 160 (designed binder)
chain: MIPGGLSEAKPATPEIQEIVDKVKPQLEEKTGETYGKLEAVQYKTQVVGPWYFGSAWGTNYYIKVRAGDNKYMHLKVFKSLWENFHKLEKEDLVLTGYQVDKNKDDELTGF
notes: His-tagged
B3: Clone 169 (designed binder)
chain: MIPGGLSEAKPATPEIQEIVDKVKPQLEEKTGETYGKLEAVQYKTQVVYANIGPWLYGTNYYIKVRAGDNKYMHLKVFKSLFKHRQQLHYTEDLVLTGYQVDKNKDDELTGF
notes: His-tagged
B4: Clone 148 (designed binder)
chain: MIPGGLSEAKPATPEIQEIVDKVKPQLEEKTGETYGKLEAVQYKTQVVRDYDPFPYTGTNYYIKVRAGDNKYMHLKVFKSLWRGPGPYAIEDLVLTGYQVDKNKDDELTGF
notes: His-tagged
B5: Clone 153 (designed binder)
chain: MIPGGLSEAKPATPEIQEIVDKVKPQLEEKTGETYGKLEAVQYKTQVVYPWSWNGHYGTNYYIKVRAGDNKYMHLKVFKSLIKYPFARAEEDLVLTGYQVDKNKDDELTGF
notes: His-tagged
B6: Clone 223 (designed binder)
chain: MIPGGLSEAKPATPEIQEIVDKVKPQLEEKTGETYGKLEAVQYKTQVVFPWDQENYYGTNYYIKVRAGDNKYMHLKVFKSLIKEPFIKNVEDLVLTGYQVDKNKDDELTGF
notes: His-tagged
B7: Clone 151 (designed binder)
chain: MIPGGLSEAKPATPEIQEIVDKVKPQLEEKTGETYGKLEAVQYKTQVVWEEVNWRNWGTNYYIKVRAGDNKYMHLKVFKSLVPIHDHLRNEDLVLTGYQVDKNKDDELTGF
notes: His-tagged
B8: Clone 171 (designed binder)
chain: MIPGGLSEAKPATPEIQEIVDKVKPQLEEKTGETYGKLEAVQYKTQVVIDHQNHPTEGTNYYIKVRAGDNKYMHLKVFKSLWPWLHSTEQEDLVLTGYQVDKNKDDELTGF
notes: His-tagged
B9: Clone 145 (designed binder)
chain: MIPGGLSEAKPATPEIQEIVDKVKPQLEEKTGETYGKLEAVQYKTQVVYKNVGPWVNGTNYYIKVRAGDNKYMHLKVFKSLYRTNRGHEREDLVLTGYQVDKNKDDELTGF
notes: His-tagged
B10: Clone 170 (designed binder)
chain: MIPGGLSEAKPATPEIQEIVDKVKPQLEEKTGETYGKLEAVQYKTQVVHQFQEIKWFGTNYYIKVRAGDNKYMHLKVFKSLFHRTPGSTTEDLVLTGYQVDKNKDDELTGF
notes: His-tagged
B11: Clone 178 (designed binder)
chain: MIPGGLSEAKPATPEIQEIVDKVKPQLEEKTGETYGKLEAVQYKTQVVDHLPHAKYWGTNYYIKVRAGDNKYMHLKVFKSLWYQPRWKVEEDLVLTGYQVDKNKDDELTGF
notes: His-tagged
B12: Clone 159 (designed binder)
chain: MIPGGLSEAKPATPEIQEIVDKVKPQLEEKTGETYGKLEAVQYKTQVVHVHWAWNYLGTNYYIKVRAGDNKYMHLKVFKSLRNFYTFPHEEDLVLTGYQVDKNKDDELTGF
notes: His-tagged
B13: Clone 146 (designed binder)
chain: MIPGGLSEAKPATPEIQEIVDKVKPQLEEKTGETYGKLEAVQYKTQVVSKRSAWHWTGTNYYIKVRAGDNKYMHLKVFKSLFWNAPDDRQEDLVLTGYQVDKNKDDELTGF
notes: His-tagged
B14: Clone 173 (designed binder)
chain: MIPGGLSEAKPATPEIQEIVDKVKPQLEEKTGETYGKLEAVQYKTQVVDWPSHAKFWGTNYYIKVRAGDNKYMHLKVFKSLFLPDKDDPFEDLVLTGYQVDKNKDDELTGF
notes: His-tagged
B15: Clone 172 (designed binder)
chain: MIPGGLSEAKPATPEIQEIVDKVKPQLEEKTGETYGKLEAVQYKTQVVSVFQYTYKFGTNYYIKVRAGDNKYMHLKVFKSLNNKPPHNDLEDLVLTGYQVDKNKDDELTGF
notes: His-tagged
B16: Clone 166 (designed binder)
chain: MIPGGLSEAKPATPEIQEIVDKVKPQLEEKTGETYGKLEAVQYKTQVVVAGLKWHWEGTNYYIKVRAGDNKYMHLKVFKSLIYASQYDYREDLVLTGYQVDKNKDDELTGF
notes: His-tagged
B17: Clone 165 (designed binder)
chain: MIPGGLSEAKPATPEIQEIVDKVKPQLEEKTGETYGKLEAVQYKTQVVNEAESSRFLGTNYYIKVRAGDNKYMHLKVFKSLHDFTLKWKFEDLVLTGYQVDKNKDDELTGF
notes: His-tagged
B18: Clone 156 (designed binder)
chain: MIPGGLSEAKPATPEIQEIVDKVKPQLEEKTGETYGKLEAVQYKTQVVIQQLYKQTWGTNYYIKVRAGDNKYMHLKVFKSLDYQHWPYDFEDLVLTGYQVDKNKDDELTGF
notes: His-tagged
B19: Clone 150 (designed binder)
chain: MIPGGLSEAKPATPEIQEIVDKVKPQLEEKTGETYGKLEAVQYKTQVVREVGLWRFQGTNYYIKVRAGDNKYMHLKVFKSLYIGYAGDAQEDLVLTGYQVDKNKDDELTGF
notes: His-tagged
B20: Clone 18 (designed binder)
chain: MIPGGLSEAKPATPEIQEIVDKVKPQLEEKTGETYGKLEAVQYKTQVVEAHQDLHFWGTNYYIKVRAGDNKYMHLKVFKSLLTEHNKKHQERHLDHEDLVLTGYQVDKNKDDELTGF
notes: His-tagged
B21: Clone 17 (designed binder)
chain: MIPGGLSEAKPATPEIQEIVDKVKPQLEEKTGETYGKLEAVQYKTQVVIVYTIWNYVGTNYYIKVRAGDNKYMHLKVFKSLTPQTETEHEEDLVLTGYQVDKNKDDELTGF
notes: His-tagged
B22: Clone 180 (designed binder)
chain: MIPGGLSEAKPATPEIQEIVDKVKPQLEEKTGETYGKLEAVQYKTQVVLQGSRLPIEGTNYYIKVRAGDNKYMHLKVFKSLGWHNVTLPPEDLVLTGYQVDKNKDDELTGF
notes: His-tagged
B23: Clone 158 (designed binder)
chain: MIPGGLSEAKPATPEIQEIVDKVKPQLEEKTGETYGKLEAVQYKTQVVDNVANIVPHGTNYYIKVRAGDNKYMHLKVFKSLGWNYEHKWPEDLVLTGYQVDKNKDDELTGF
notes: His-tagged
B24: Clone 49 (designed binder)
chain: MIPGGLSEAKPATPEIQEIVDKVKPQLEEKTGETYGKLEAVQYKTQVVKYYAIFDYKGTNYYIKVRAGDNKYMHLKVFKSLFKEKVRNSIEDLVLTGYQVDKNKDDELTGF
notes: His-tagged
B25: Clone 81 (designed binder)
chain: MIPGGLSEAKPATPEIQEIVDKVKPQLEEKTGETYGKLEAVQYKTQVVKAYVIWSYKGTNYYIKVRAGDNKYMHLKVFKSLFYGEPRGKGEDLVLTGYQVDKNKDDELTGF
notes: His-tagged
B26: Clone 157 (designed binder)
chain: MIPGGLSEAKPATPEIQEIVDKVKPQLEEKTGETYGKLEAVQYKTQVVIYYPIWDFHGTNYYIKVRAGDNKYMHLKVFKSLFWGDLKTEDLVLTGYQVDKNKDDELTGF
notes: His-tagged
B27: Clone 167 (designed binder)
chain: MIPGGLSEAKPATPEIQEIVDKVKPQLEEKTGETYGKLEAVQYKTQVVYRNKQWYNEGTNYYIKVRAGDNKYMHLKVFKSLKIGYLEFVLEDLVLTGYQVDKNKDDELTGF
notes: His-tagged
B28: Clone 208 (designed binder)
chain: B27 chain with Y49Q, R50W, N51K, Q53T, W54Q, N56F, E57F, K82R, V89E, L90I
notes: His-tagged
B29: Clone 155 (designed binder)
chain: MIPGGLSEAKPATPEIQEIVDKVKPQLEEKTGETYGKLEAVQYKTQVVWRTGQKWQVGTNYYIKVRAGDNKYMHLKVFKSLAGHYEVHIGEDLVLTGYQVDKNKDDELTGF
notes: His-tagged
B30: Clone 163 (designed binder)
chain: MIPGGLSEAKPATPEIQEIVDKVKPQLEEKTGETYGKLEAVQYKTQVVISASEIRWYGTNYYIKVRAGDNKYMHLKVFKSLKAFANDYYKEDLVLTGYQVDKNKDDELTGF
notes: His-tagged
B31: Clone 147 (designed binder)
chain: MIPGGLSEAKPATPEIQEIVDKVKPQLEEKTGETYGKLEAVQYKTQVVVHITVEWEGTNYYIKVRAGDNKYMHLKVFKSLIYQRHTQSREDLVLTGYQVDKNKDDELTGF
notes: His-tagged
B32: Clone 177 (designed binder)
chain: MIPGGLSEAKPATPEIQEIVDKVKPQLEEKTGETYGKLEAVQYKTQVVISEDSWWPHGTNYYIKVRAGDNKYMHLKVFKSLNWFHQPWQREDLVLTGYQVDKNKDDELTGF
notes: His-tagged
B33: Clone 192 (designed binder)
chain: MIPGGLSEAKPATPEIQEIVDKVKPQLEEKTGETYGKLEAVQYKTQVVTENNSWWPIGTNYYIKVRAGDNKYMHLKVFKSLNWFSDEAPYEDLVLTGYQVDKNKDDELTGF
notes: His-tagged
B34: Clone 68 (designed binder)
chain: MIPGGLSEAKPATPEIQEIVDKVKPQLEEKTGETYGKLEAVQYKTQVVRVQGLWNFQGTNYYIKVRAGDNKYMHLKVFKSLGHHGDHEKWEDLVLTGYQVDKNKDDELTGF
notes: His-tagged
B35: Clone 164 (designed binder)
chain: B34 chain with V50I, Q51W, L53F, N55A, H84E, G85S, D86G, H87Q, E88N, K89L
notes: His-tagged

Each binder was assayed against T1, human PD-L1-Fc (R&D Systems) (human, UniProt Q9NZQ7 19-239) (assay: soluble Affimer ELISA).
T1 construct: Bought from R&D Systems; Biotinylated in-house for the phage selection; also called huPD-L1-Fc; human PD-L1-Fc antigen; not shown: Fc part of the bought fusion
T1 sequence (Q9NZQ7 19-239 limits assumed): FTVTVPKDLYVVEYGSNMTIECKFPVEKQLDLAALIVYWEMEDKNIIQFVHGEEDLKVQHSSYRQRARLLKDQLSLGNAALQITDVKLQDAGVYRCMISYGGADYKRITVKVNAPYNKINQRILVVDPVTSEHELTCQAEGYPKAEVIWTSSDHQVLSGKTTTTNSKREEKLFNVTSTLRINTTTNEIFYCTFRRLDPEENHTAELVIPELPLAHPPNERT

binding result	Binder
binds	B1
binds	B2
binds	B3
binds	B4
binds	B5
binds	B6
binds	B7
binds	B8
binds	B9
binds	B10
binds	B11
binds	B12
binds	B13
binds	B14
binds	B15
binds	B16
binds	B17
binds	B18

binding result	Binder
binds	B19
binds	B20
binds	B21
binds	B22
binds	B23
binds	B24
binds	B25
binds	B26
binds	B27
binds	B28
binds	B29
binds	B30
binds	B31
binds	B32
binds	B33
binds	B34
binds	B35
